Consider one substance from publication PMC9808565.

As a reminder, the Kd is the free concentration of one partner at which half of the binding sites on the other are occupied at equilibrium, for simple one-to-one binding. Usually stoichiometry N stands for the number of molecules, sites or subunits per partner or assembly.

The target in this experiment is human ACE2 protein (hACE2), recombinant, His-tagged, Met1-Ser740 (human) (UniProt Q9BYF1). Put plainly: ITC. For orientation: In ITC the heat of successive injections is recorded.
Sequence of UniProt Q9BYF1 (Q9BYF1 18-740): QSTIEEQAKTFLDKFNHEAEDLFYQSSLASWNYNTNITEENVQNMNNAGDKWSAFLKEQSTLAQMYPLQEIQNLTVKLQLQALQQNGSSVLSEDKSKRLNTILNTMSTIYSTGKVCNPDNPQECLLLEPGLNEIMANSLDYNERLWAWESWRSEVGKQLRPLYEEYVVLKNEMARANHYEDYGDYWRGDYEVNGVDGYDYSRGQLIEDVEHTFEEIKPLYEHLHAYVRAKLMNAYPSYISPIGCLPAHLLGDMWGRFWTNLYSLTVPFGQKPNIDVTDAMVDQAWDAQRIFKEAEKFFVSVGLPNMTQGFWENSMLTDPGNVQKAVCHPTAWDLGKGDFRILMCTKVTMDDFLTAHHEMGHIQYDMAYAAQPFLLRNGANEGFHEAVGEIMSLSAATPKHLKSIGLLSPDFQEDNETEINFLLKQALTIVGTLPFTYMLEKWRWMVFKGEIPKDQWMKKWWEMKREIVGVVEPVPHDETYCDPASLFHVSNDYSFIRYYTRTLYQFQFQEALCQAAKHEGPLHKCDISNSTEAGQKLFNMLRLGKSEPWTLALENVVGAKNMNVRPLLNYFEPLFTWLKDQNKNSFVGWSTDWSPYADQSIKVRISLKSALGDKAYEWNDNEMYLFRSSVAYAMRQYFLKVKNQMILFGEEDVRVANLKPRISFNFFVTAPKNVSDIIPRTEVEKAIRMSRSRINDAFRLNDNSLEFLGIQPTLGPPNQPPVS

With “SARS-CoV-1 spike RBD (RBD^CoV1), Arg306-Phe527, His-tagged (domain or fragment)”, the dissociation constant (Kd) amounted to 146 nM, the dH is -10.5 kcal/mol and the stoichiometry N amounted to 1.03.
